According to paper PMC8519809 (Cell Reports, 2021):

Target: SARS-CoV-1 S-2P protein (SARS-CoV-1 (human SARS coronavirus); …, stabilised)
Test: SPR

B1: Fab22 (Fab, V domains shown)
VH: EVQLQQPGPVLVKPGASVRMSCKASGYRITDNFMNWVKQSHGKSLEWIGIINPYNGGTKYNQKFKGKATLTVDTSSSTAYMELNSLTSEDSAVYYCTRVRGNDYHGRAMDYWGQGTSVTVSS
VL: DVVLTQTPLSLPVNIGDQASISCKSTKSLLNRDGFTFLDWYLQKPGQSPQLLIYLVSNRFSGVPDRFSGSGSGTDFTLKISRVEAEDLGVYYCFQSNYLFTFGSGTKLEIK
- Kd: 7.2 nM
